# Data as given in patent US6942981.
# Ends that are not written are not given here. * marks the point of attachment. Biotin = O=C1N[C@H]2[C@H](CS[C@H]2CCCCC(=O)*)N1
# T1: GST-NeDLG PDZ domains 1-2 fusion protein (Mus musculus (Mouse), UniProt P70175 147-332)
# T1 construct: also called NeDLG1; not shown: glutathione S-transferase (GST) encoded by pGEX-3X
# T1 chain: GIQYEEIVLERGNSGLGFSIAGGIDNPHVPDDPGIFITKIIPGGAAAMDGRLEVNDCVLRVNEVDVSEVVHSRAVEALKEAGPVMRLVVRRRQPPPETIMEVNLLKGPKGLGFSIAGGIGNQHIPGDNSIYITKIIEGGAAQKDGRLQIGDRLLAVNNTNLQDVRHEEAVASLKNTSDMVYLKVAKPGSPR
# T2: GST-SYN1a (alpha1-syntrophin) PDZ domain fusion protein (Homo sapiens (Human), UniProt Q13424 84-179)
# T2 construct: also called SYN 1 α; not shown: glutathione S-transferase (GST) encoded by pGEX-3X
# T2 sequence: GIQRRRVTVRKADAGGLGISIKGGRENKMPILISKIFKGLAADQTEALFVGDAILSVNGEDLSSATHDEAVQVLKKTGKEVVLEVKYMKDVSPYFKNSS
# T3: GST-MPP2 PDZ domain fusion protein
# T3 construct: also called maguk p55 subfamily member 2 (DLG2); MMP2; not shown: glutathione S-transferase (GST) encoded by pGEX-3X
# T3 chain: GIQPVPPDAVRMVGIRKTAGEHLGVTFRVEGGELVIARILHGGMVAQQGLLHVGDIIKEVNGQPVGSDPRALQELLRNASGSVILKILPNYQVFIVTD
# T4: GST-LIMK2 PDZ domain fusion protein (human, UniProt P53671 147-237)
# T4 construct: also called human LIM domain kinase 2; not shown: glutathione S-transferase (GST) encoded by pGEX-3X
# T4 sequence: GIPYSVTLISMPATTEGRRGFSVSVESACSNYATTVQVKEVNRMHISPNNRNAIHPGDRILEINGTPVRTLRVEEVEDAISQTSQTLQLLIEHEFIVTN
# T5: GST-MINT3 PDZ domain fusion protein (human)
# T5 construct: also called human MINT3; not shown: glutathione S-transferase (GST) encoded by pGEX-3X
# T5 chain: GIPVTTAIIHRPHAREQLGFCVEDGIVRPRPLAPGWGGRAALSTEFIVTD
# T6: GST-DVL1 PDZ domain fusion protein (human)
# T6 construct: also called human dishevelled segment polarity protein homolog; not shown: glutathione S-transferase (GST) encoded by pGEX-3X
# T6 chain: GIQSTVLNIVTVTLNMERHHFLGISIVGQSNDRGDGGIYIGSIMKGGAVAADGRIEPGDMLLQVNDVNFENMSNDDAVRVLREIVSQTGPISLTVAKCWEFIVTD
# T7: GST-TAX2 PDZ domain fusion protein (human, UniProt O14908 129-216)
# T7 construct: not shown: glutathione S-transferase (GST) encoded by pGEX-3X
# T7 chain: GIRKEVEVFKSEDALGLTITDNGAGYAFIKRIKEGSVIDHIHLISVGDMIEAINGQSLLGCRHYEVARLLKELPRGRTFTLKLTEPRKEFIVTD
# What was measured:
# Assay in all cases: A/G assays
# [1] = molecular target: T1, GST-NeDLG PDZ domains 1-2 fusion protein
# [2] = molecular target: T2, GST-SYN1a (alpha1-syntrophin) PDZ …
# [3] = molecular target: T3, GST-MPP2 PDZ domain fusion protein
# [4] = molecular target: T4, GST-LIMK2 PDZ domain fusion protein
# [5] = molecular target: T5, GST-MINT3 PDZ domain fusion protein
# [6] = molecular target: T6, GST-DVL1 PDZ domain fusion protein
# [7] = molecular target: T7, GST-TAX2 PDZ domain fusion protein
binding result [1],binding result [2],binding result [3],binding result [4],binding result [5],binding result [6],binding result [7],Binder
no binding,no binding,no binding,no binding,no binding,no binding,no binding,Biotin-LERTSSVSPSTAEPELSIVF [CC CKR-3 C-terminal peptide AA43L]
no binding,no binding,no binding,no binding,no binding,no binding,no binding,Biotin-DLGNMEENKKLEENNHKTEA [CD166 (CD6L) C-terminal peptide AA20L]
no binding,no binding,no binding,no binding,no binding,no binding,no binding,Biotin-SSSQSLESDGSYQKPSYIL [CD62E C-terminal peptide AA48L]
no binding,no binding,no binding,no binding,no binding,no binding,no binding,Biotin-PYGTAMEKAQLKPPATSDA [CD49E (alpha-4) C-terminal peptide AA11L]
no binding,no binding,no binding,no binding,no binding,no binding,no binding,Biotin-TSGTGHNQTRALRASESGI [CD97 (CD55L) C-terminal peptide AA14L]
no binding,no binding,no binding,no binding,no binding,no binding,no binding,Biotin-GKGKSIGRAPEASLQDKEGA [CC CKR-2 C-terminal peptide AA42L]
no binding,no binding,no binding,no binding,no binding,no binding,no binding,Biotin-SPQPDSTDNDDYDDISAA [CD6 C-terminal peptide AA6L]

# Continued, binder first:
Binder,binding result [1],binding result [2],binding result [3],binding result [4],binding result [5],binding result [6],binding result [7]
"Biotin-HKAEIHAQPSDKERLTSDA [CD49F (Aform, alpha6) C-terminal peptide AA12L]",no binding,no binding,no binding,no binding,no binding,no binding,no binding
Biotin-YSATYSELEDPGEMSPPIDL (also called FceRlb; FcεRβI) [FceRIb C-terminal peptide AA25L],no binding,no binding,no binding,no binding,no binding,no binding,no binding
Biotin-PSWRRSSLSESENATSLTTF [BLR-1 C-terminal peptide AA45L],no binding,no binding,no binding,no binding,no binding,no binding,no binding
Biotin-EVICYIEKPGVETLEDSVF [CDW125 (IL5R) C-terminal peptide AA28L],no binding,no binding,no binding,no binding,no binding,no binding,no binding
Biotin-CAISGTSSDRGYGSPRYAEV [CLASP-4 C-terminal peptide AA3L-V],–,no binding,no binding,no binding,no binding,no binding,no binding
Biotin-ENLAPVTTFGKTNGYIA [CD148 (DEP-1) C-terminal peptide AA19L (ending GYIA)],no binding,no binding,no binding,no binding,no binding,no binding,no binding
Biotin-DTPSSSYTQSTMDHDLHDAL [CC CKR-4 C-terminal peptide AA44L],no binding,no binding,no binding,no binding,no binding,no binding,no binding
Biotin-SSKSKSSEESQTFFGLYKL (not fully specified) [FasLigand C-terminal peptide AA23L-M],no binding,no binding,no binding,no binding,no binding,no binding,no binding
Biotin-SVFSIPTLWSPWPPSSSSQL (also called CD3-η) [CD3n C-terminal peptide AA4L],no binding,no binding,no binding,no binding,no binding,no binding,no binding
Biotin-LERVSSTSPSTGEHELSAGF [CC CKR-1R C-terminal peptide AA41L],no binding,no binding,no binding,no binding,no binding,no binding,no binding
Biotin-SMQPDNSSDSDYDLHGAQRL [CD5 C-terminal peptide AA49L],no binding,no binding,no binding,no binding,no binding,no binding,no binding
